One molecule from patent KR20150077891A (dated 2015) can be followed below.

Test [1] has as its target T1, WRS (tryptophanyl-tRNA synthetase), purified recombinant antigen / standard (human, UniProt P23381 1-471, limits assumed).
T1 construct: The recombinant construct used for panning, SPR, Luminex beads and ELISA is not described; also called WRS 항원; 재조합 WRS 표준물질
T1 sequence (looked up): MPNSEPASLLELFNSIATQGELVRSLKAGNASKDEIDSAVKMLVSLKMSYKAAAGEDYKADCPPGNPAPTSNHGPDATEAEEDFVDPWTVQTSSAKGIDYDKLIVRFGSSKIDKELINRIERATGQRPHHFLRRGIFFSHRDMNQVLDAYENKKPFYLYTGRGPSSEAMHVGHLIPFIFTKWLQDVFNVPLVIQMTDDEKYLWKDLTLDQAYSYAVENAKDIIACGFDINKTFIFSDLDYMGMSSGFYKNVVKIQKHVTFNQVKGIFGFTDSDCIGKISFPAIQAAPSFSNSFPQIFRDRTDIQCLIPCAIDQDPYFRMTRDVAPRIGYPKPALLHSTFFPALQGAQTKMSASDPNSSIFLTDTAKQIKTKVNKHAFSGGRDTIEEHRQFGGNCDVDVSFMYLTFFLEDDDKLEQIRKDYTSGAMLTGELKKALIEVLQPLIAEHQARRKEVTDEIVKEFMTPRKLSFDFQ
Nature of the test: SPR (ProteOn XPR36), WRS amine-coupled to GLC chip, scFv 500-30 nM as analyte, 25 C.

For test [2], the target named is T2, KRS (Lysyl-tRNA synthetase), recombinant (UniProt Q15046 1-597, limits assumed).
T2 construct: also called 리실-tRNA 합성효소
Nature of the test: Luminex multiplex bead assay, antigen coupled to beads, anti-HA-biotin / SA-PE detection.

Test [3] addresses T3, AIMP1 (Aminoacyl-tRNA-synthetase-interacting multifunctional protein 1), recombinant (UniProt Q12904 1-312, limits assumed).
T3 construct: also called p43; AIMP1(p43)
T3 sequence (looked up): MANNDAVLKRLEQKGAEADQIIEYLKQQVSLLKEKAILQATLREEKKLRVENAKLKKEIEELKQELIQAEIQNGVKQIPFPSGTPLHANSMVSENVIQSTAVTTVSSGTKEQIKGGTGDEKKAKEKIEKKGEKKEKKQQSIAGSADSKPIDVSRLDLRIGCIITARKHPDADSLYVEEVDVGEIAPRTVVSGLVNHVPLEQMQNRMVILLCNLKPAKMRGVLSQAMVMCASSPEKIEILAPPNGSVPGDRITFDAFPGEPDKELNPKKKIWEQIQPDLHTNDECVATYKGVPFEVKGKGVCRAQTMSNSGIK
The description is as above.

The target in test [4] is T4, SRS (Seryl-tRNA synthetase), recombinant (UniProt P49591 1-514, limits assumed).
T4 construct: also called 세릴-tRNA 합성효소
The test is described as above.

The target of test [5] is T5, NRS (Asparaginyl-tRNA synthetase), recombinant (UniProt O43776 1-548, limits assumed).
T5 construct: also called 아스파라기닐딜-tRNA 합성효소
T5 sequence (looked up): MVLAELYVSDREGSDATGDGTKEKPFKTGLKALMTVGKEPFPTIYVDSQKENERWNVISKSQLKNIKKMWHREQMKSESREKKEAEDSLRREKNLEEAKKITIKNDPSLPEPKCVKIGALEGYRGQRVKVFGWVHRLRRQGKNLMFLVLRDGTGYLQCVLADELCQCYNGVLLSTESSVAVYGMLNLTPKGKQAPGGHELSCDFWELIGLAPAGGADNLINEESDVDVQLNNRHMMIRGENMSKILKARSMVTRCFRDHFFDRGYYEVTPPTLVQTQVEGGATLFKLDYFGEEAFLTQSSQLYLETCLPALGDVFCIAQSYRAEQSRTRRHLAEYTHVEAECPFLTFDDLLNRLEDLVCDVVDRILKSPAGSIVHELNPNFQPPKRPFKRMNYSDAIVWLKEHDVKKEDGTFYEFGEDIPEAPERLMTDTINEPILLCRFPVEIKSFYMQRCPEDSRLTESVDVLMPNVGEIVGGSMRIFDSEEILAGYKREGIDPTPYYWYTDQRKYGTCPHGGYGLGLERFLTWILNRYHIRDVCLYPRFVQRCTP
The description is as above.

Test [6] addresses T6, HRS (Histidyl-tRNA synthetase), recombinant (UniProt P12081 1-509, limits assumed).
T6 construct: also called 히스티딜-tRNA 합성효소
T6 sequence (looked up): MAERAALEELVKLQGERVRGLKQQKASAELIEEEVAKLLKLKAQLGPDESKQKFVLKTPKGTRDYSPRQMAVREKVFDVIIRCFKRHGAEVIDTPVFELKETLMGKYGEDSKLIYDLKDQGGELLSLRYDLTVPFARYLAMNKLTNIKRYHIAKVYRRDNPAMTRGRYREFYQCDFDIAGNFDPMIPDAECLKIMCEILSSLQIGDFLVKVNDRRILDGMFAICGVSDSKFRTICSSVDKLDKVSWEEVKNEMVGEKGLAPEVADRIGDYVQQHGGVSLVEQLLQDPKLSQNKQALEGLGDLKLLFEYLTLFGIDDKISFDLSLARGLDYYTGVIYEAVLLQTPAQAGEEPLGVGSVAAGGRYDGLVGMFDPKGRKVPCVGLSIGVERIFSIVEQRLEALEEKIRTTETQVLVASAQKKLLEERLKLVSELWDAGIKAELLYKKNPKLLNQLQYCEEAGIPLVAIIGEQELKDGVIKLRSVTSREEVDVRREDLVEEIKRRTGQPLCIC
The test is described as above.

The target of test [7] is T7, YRS (Tyrosyl-tRNA synthetase), recombinant (UniProt P54577 1-528, limits assumed).
T7 construct: also called 타이로실-tRNA 합성효소
T7 sequence (looked up): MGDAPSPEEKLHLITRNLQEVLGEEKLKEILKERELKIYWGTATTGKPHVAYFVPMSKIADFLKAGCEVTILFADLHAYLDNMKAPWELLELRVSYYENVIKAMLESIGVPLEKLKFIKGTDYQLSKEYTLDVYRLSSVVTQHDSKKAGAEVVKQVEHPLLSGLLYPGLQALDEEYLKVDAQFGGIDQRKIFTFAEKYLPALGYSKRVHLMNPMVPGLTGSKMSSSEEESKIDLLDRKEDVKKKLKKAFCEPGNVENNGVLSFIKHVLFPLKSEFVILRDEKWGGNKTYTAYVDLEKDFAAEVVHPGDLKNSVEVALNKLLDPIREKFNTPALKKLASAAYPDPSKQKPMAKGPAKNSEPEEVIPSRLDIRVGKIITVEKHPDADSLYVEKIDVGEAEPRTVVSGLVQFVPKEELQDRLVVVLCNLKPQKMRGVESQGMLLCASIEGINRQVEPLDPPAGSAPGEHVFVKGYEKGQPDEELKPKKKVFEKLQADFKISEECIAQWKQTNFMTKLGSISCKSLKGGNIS
The test is described as above.

Test [8] has as its target T8, GRS (Glycyl-tRNA synthetase), recombinant (UniProt P41250 55-739, limits assumed).
T8 construct: also called 글리실-tRNA 합성효소
T8 sequence (looked up): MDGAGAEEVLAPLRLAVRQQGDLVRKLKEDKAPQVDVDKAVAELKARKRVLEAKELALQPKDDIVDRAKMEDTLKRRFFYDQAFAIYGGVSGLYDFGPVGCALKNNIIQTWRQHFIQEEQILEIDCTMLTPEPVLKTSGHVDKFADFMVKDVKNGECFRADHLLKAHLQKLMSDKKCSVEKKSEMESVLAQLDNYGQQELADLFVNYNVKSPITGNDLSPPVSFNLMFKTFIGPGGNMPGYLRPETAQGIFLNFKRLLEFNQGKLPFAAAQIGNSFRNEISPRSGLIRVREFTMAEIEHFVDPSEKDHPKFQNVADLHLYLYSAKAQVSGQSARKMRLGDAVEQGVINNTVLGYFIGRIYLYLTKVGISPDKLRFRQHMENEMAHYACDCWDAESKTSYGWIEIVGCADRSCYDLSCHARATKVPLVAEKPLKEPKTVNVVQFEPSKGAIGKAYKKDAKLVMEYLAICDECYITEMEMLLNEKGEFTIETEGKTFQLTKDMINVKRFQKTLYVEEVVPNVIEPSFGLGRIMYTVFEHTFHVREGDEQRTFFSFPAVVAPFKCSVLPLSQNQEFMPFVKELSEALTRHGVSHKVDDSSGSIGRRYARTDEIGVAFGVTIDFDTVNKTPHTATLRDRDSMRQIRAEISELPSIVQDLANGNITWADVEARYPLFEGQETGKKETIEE
The description is as above.

T2 sequence (Q15046 whole entry): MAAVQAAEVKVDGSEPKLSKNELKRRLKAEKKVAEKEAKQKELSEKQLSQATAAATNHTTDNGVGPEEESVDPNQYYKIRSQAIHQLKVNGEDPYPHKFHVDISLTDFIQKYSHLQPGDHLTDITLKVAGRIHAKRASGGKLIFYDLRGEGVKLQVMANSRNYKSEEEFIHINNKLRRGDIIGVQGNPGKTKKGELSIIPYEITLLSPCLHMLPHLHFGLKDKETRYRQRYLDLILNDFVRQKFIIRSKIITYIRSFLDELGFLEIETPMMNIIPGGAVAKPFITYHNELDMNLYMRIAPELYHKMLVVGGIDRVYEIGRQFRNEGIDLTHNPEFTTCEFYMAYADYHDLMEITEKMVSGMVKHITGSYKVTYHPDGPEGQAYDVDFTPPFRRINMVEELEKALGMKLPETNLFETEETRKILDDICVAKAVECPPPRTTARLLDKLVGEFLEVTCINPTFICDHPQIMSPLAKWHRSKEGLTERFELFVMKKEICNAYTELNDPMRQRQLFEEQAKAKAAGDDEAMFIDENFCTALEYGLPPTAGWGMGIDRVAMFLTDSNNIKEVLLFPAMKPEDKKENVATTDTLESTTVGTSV
T4 sequence (P49591 whole entry): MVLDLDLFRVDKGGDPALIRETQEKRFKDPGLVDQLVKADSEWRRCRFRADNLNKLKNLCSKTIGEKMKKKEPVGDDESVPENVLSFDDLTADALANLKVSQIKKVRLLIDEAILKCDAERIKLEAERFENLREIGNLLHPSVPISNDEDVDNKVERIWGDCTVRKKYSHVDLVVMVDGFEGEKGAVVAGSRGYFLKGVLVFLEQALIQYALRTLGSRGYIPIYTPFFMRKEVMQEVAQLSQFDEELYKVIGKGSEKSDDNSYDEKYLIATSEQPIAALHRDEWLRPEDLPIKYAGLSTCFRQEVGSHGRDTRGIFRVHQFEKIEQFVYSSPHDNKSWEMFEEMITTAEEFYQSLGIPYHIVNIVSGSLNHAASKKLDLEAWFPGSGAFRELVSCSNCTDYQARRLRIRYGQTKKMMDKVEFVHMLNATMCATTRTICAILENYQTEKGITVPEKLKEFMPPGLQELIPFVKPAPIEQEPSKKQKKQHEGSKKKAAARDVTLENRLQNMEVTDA

B1: anti-WRS scFv Biocon-W1 (scFv)
scFv: EVQLLESGGGLVQPGGSLRLSCAASGLAFSDYYMSWVRLAPGKGLEWVSVISPGSGSKYYADSVRGRFTVSRDNSKNTLYLQMNSLRAEDTAVYYCARKNQAFDYWGQGTLVTVSSGGGGSGGGGSGGGGSQSVLTQPPSASGTPGQRVTISCTGSSSNIGSNYVTWYQQLPGTAPKLLIYANSQRPSGVPDRFSGSKSGTSASLAISGLRSEDEADYYCASWDASLSGYVFGGGTKLTVL
notes: Single clone selected from a human VH3-23/VL1g synthetic scFv phage library and expressed in the E. coli periplasm; also called 항 WRS scFv 항체; 본 발명의 항체; not shown: His and HA tags from the pComb3X vector, implied by Ni-NTA purification and anti-HA detection
Turning to B1, in test [1], the Kd came to 700 nM. For the same molecule, the binding result in test [2], in test [3], in test [4], in test [5], in test [6] and in test [7] was “no binding” in each case. The binding result in test [8] was “no binding”.
